Patent publication CN116063506A (HUADAO SHANGHAI BIOMEDICAL CO LTD, dated 2023)

Target: T1, CD4抗原 (表面抗原分化簇4, Cluster of Differentiation 4) (UniProt P01730 26-458, limits assumed)
T1 construct: whole, on cells; also called 细胞表面的CD4抗原; Nalm6-CD4
Test: flow cytometry on Nalm6-CD4 cells; antibody from 4 μg/mL in 4-fold dilutions, 10 concentrations; APC goat anti-mouse IgG secondary

B1: 分离的抗体(标记为CD4-14) (antibody, V domains shown)
VH: QVQLVQSGPELKKPGASVKVSCKASGYTFTDYVIHWVKQATGQGLEWIGEIYPGSGSAYSNAKFKDRVTMTADKSSNTAYMELSSLTSDDTAVYFCARRGNGTGFAYWGQGTLVTVSS
VL: DIVLTQSPASLAVSLGQRATITCKAGQSVDYDGDSYMNWYQQKPGQPPKLLIYVASNLESGIPARFSGSGSGTDFTLNIHPVEENDAATYYCQQSYKDPLTFGQGTKLEIK
notes: also called 分离抗体; 本发明的分离抗体
EC50: 0.152 µg/mL
